From US20260125457A1 (Janssen / Centocor, published 2026)
Each block holds one binder with its values, some of them ahead of it.

Key:
[1] = biological target: T1, CALRins5 (mutant calreticulin, 5 base pair insertion, Type 2) expressed with MPL on engineered cancer cells (UniProt P27797 18-417); assay: flow cytometry on OCI-M2 MPL CALRins5 cells, 1 h at 37 C, AF647 secondary antibody, Geometric mean
T1 construct: whole, on cells; On the cell surface in complex with MPL; also called OCI-M2 MPL CALRins5
T1 sequence (looked up): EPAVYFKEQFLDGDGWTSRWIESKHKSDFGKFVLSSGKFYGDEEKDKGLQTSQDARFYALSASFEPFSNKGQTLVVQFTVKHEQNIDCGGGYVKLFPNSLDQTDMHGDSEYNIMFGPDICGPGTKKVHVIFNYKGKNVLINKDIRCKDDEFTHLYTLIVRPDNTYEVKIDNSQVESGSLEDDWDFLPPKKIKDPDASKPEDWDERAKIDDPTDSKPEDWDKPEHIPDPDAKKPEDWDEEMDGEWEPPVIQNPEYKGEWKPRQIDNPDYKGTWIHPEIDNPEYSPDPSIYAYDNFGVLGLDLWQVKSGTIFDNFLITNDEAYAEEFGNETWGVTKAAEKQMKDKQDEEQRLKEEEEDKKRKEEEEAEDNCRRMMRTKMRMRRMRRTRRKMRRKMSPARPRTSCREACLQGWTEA
Protocol: (§1) FIGS. 27A-27F depict binding of different CALRmutxCD3 antibodies to CALRmut-negative or CALRmut-positive cells. Flow cytometry was used to evaluate CALRmutxCD3 binding to CALRmut-negative and CALRmut-positive cancer cells in vitro. CALRmutxCD3 antibodies were tested on a panel of cell lines, engineered to express MPL and CALRmut, after 1 hour 37° C. incubation, with subsequent incubation with secondary AF647-labeled antibody. Geometric mean fluorescence intensity of AF647 was measured to determine antibody binding.

[2] = biological target: T1, CALRins5 (mutant calreticulin, 5 base …); assay: flow cytometry on ELF-153 MPL CALRins5 cells, 1 h at 37 C, AF647 secondary antibody, Geometric mean
Protocol: as §1

[3] = biological target: T2, wild-type calreticulin (CALRwt) expressed with MPL in engineered cancer cells (UniProt P27797 18-417, limits assumed); assay: flow cytometry on OCI-M2 MPL CALRwt cells, 1 h at 37 C, AF647 secondary antibody, Geometric mean
T2 construct: whole, on cells; also called OCI-M2 MPL CALRwt
T2 sequence (looked up): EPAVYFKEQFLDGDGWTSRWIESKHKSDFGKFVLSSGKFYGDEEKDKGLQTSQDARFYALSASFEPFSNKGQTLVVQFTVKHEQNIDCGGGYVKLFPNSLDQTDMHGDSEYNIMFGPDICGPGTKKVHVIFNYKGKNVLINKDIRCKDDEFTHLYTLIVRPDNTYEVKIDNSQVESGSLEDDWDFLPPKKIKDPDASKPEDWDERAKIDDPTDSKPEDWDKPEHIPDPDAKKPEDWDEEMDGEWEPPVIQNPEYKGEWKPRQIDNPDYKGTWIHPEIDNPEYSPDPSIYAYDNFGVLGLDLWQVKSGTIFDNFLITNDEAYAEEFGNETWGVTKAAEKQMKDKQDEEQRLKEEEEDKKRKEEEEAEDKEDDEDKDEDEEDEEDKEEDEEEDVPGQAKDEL
Protocol: as §1

EC50 (read off the curve) [1]: ~5 nM
EC50 (read off the curve) [2]: ~1 nM
binding result [3]: no binding (tested: 100 nM)
B1: C3CRB133 CALRmut x CD3 bispecific antibody (bispecific antibody, human IgG1, kappa, L234A L235A)
scFv: DIQMTQSPSSLSASVGDRVTITCRARQSIGTAIHWYQQKPGCAPKLLIKYASESISGVPSRFSGSGSGTDFTLTISSLQPEDFATYYCQQSGSWPYTFGQGTKLEIKGGGSGGSGGCPPCGGSGGEVQLVESGGGLVKPGGSLRLSCAASGFTFSRYNMNWVRQAPGKGLEWVSSISTSSNYIYYADSVKGRFTFSRDNAKNSLDLQMSGLRAEDTAIYYCTRGWGPFDYWGCGTLVTVSSEPKSSDKTHTCPPCPAPEAAGGPSVFLFPPKPKDTLMISRTPEVTCVVVSVSHEDPEVKFNWYVDGVEVHNAKTKPREEQYNSTYRVVSVLTVLHQDWLNGKEYKCKVSNKALPAPIEKTISKAKGQPREPQVYTLPPSREEMTKNQVSLWCLVKGFYPSDIAVEWESNGQPENNYKTTPPVLDSDGSFFLYSKLTVDKSRWQQGNVFSCSVMHEALHNHYTQKSLSLSPGK
heavy: DIQMTQSPSTLSASVGDRVTITCQASQSLYNNKNLAWYQQKPGCAPKLLIYYASALASGVPSRFSGSGSGTEFTLTISSLQPDDFATYYCQGEFNCNSADCNSFGGGTKVEIKGGGSGGSGGCPPCGGSGGQVQLVQSGAEVKKPGASVKVSCKASGFSLSSYAMSWVRQAPGQGLEWMGVIDSGGTTYYAQKFQGRVTMTRDTSTSTVYMELSSLRSEDTAVYYCARESYAGYDYYGHPIPYGMEPWGCGTLVTVSSGGGGSGGGGSEVQLLESGGGLVQPGGSLRLSCAVSGIDLSNNAISWVRQAPGKGLEYVGVIGNTGDTYYADSAKGRFTISRDSSKTTLYLQMNSLRAEDTAVYFCVRGPPSYSSSVKNIWGQGTLVTVSSASTKGPSVFPLAPSSKSTSGGTAALGCLVKDYFPEPVTVSWNSGALTSGVHTFPAVLQSSGLYSLSSVVTVPSSSLGTQTYICNVNHKPSNTKVDKKVEPKSCDKTHTCPPCPAPEAAGGPSVFLFPPKPKDTLMISRTPEVTCVVVSVSHEDPEVKFNWYVDGVEVHNAKTKPREEQYNSTYRVVSVLTVLHQDWLNGKEYKCKVSNKALPAPIEKTISKAKGQPREPQVYTLPPSREEMTKNQVSLSCAVKGFYPSDIAVEWESNGQPENNYKTTPPVLDSDGSFFLVSKLTVDKSRWQQGNVFSCSVMHEALHNRFTQKSLSLSPGK
light: DIQMTQSPSSVSASVGDRVTITCQSSQSVYNNNWLSWLQQKPGKAPKRLIYDASKLESGVPSRFSGSGSGTDFTLTISSVQPEDAATYYCAGGFTGNVYTFGGGTKVEIKRTVAAPSVFIFPPSDEQLKSGTASVVCLLNNFYPREAKVQWKVDNALQSGNSQESVTEQDSKDSTYSLSSTLTLSKADYEKHKVYACEVTHQGLSSPVTKSFNRGEC
notes: Chain B heavy: CALRB1114 spFv N-terminal of the CALRB421 heavy chain

EC50 (read off the curve) [1]: ~3 nM
EC50 (read off the curve) [2]: ~1 nM
binding result [3]: no binding (tested: 100 nM)
B2: C3CRB134 CALRmut x CD3 bispecific antibody (bispecific antibody)
scFv: B1 scFv
heavy: EVQLLESGGGLVQPGGSLRLSCAVSGIDLSNNAISWVRQAPGKGLEYVGVIGNTGDTYYADSAKGRFTISRDSSKTTLYLQMNSLRAEDTAVYFCVRGPPSYSSSVKNIWGQGTLVTVSSASTKGPSVFPLAPSSKSTSGGTAALGCLVKDYFPEPVTVSWNSGALTSGVHTFPAVLQSSGLYSLSSVVTVPSSSLGTQTYICNVNHKPSNTKVDKKVEPKSCGGGGSGGGGSDIQMTQSPSTLSASVGDRVTITCQASQSLYNNKNLAWYQQKPGCAPKLLIYYASALASGVPSRFSGSGSGTEFTLTISSLQPDDFATYYCQGEFNCNSADCNSFGGGTKVEIKGGGSGGSGGCPPCGGSGGQVQLVQSGAEVKKPGASVKVSCKASGFSLSSYAMSWVRQAPGQGLEWMGVIDSGGTTYYAQKFQGRVTMTRDTSTSTVYMELSSLRSEDTAVYYCARESYAGYDYYGHPIPYGMEPWGCGTLVTVSSEPKSSDKTHTCPPCPAPEAAGGPSVFLFPPKPKDTLMISRTPEVTCVVVSVSHEDPEVKFNWYVDGVEVHNAKTKPREEQYNSTYRVVSVLTVLHQDWLNGKEYKCKVSNKALPAPIEKTISKAKGQPREPQVYTLPPSREEMTKNQVSLSCAVKGFYPSDIAVEWESNGQPENNYKTTPPVLDSDGSFFLVSKLTVDKSRWQQGNVFSCSVMHEALHNRFTQKSLSLSPGK
light: B1 light
notes: Chain B heavy: CALRB421 Fab heavy part, CALRB1114 spFv, Fc

EC50 (read off the curve) [1]: ~3 nM
EC50 (read off the curve) [2]: ~1 nM
binding result [3]: no binding (tested: 100 nM)
B3: C3CRB135 CALRmut x CD3 bispecific antibody (bispecific antibody, human IgG1, kappa, L234A L235A)
heavy: EVQLLESGGGLVQPGGSLRLSCAVSGIDLSNNAISWVRQAPGKGLEYVGVIGNTGDTYYADSAKGRFTISRDSSKTTLYLQMNSLRAEDTAVYFCVRGPPSYSSSVKNIWGQGTLVTVSSASTKGPSVFPLAPSSKSTSGGTAALGCLVKDYFPEPVTVSWNSGALTSGVHTFPAVLQSSGLYSLSSVVTVPSSSLGTQTYICNVNHKPSNTKVDKKVEPKSCDKTHTCPPCPAPEAAGGPSVFLFPPKPKDTLMISRTPEVTCVVVSVSHEDPEVKFNWYVDGVEVHNAKTKPREEQYNSTYRVVSVLTVLHQDWLNGKEYKCKVSNKALPAPIEKTISKAKGQPREPQVYTLPPSREEMTKNQVSLSCAVKGFYPSDIAVEWESNGQPENNYKTTPPVLDSDGSFFLVSKLTVDKSRWQQGNVFSCSVMHEALHNRFTQKSLSLSPGKGGGGSGGGGSDIQMTQSPSTLSASVGDRVTITCQASQSLYNNKNLAWYQQKPGCAPKLLIYYASALASGVPSRFSGSGSGTEFTLTISSLQPDDFATYYCQGEFNCNSADCNSFGGGTKVEIKGGGSGGSGGCPPCGGSGGQVQLVQSGAEVKKPGASVKVSCKASGFSLSSYAMSWVRQAPGQGLEWMGVIDSGGTTYYAQKFQGRVTMTRDTSTSTVYMELSSLRSEDTAVYYCARESYAGYDYYGHPIPYGMEPWGCGTLVTVSSH
light: B1 light
scFv: B1 scFv
notes: Chain A heavy: CALRB421 heavy chain with CALRB1114 spFv at the C-terminus

EC50 (read off the curve) [2]: ~1 nM
binding result [3]: no binding (tested: 100 nM)
B4: C3CRB137 CALRmut x CD3 bispecific antibody (bispecific antibody, human IgG1, kappa, L234A L235A)
scFv: B1 scFv
heavy: EVQLLESGGGLVQPGGSLRLSCAVSGIDLSNNAISWVRQAPGKGLEYVGVIGNTGDTYYADSAKGRFTISRDSSKTTLYLQMNSLRAEDTAVYFCVRGPPSYSSSVKNIWGQGTLVTVSSASTKGPSVFPLAPSSKSTSGGTAALGCLVKDYFPEPVTVSWNSGALTSGVHTFPAVLQSSGLYSLSSVVTVPSSSLGTQTYICNVNHKPSNTKVDKKVEPKSCGGGGSGGGGSEVQLLESGGGLVQPGGSLRLSCAVSGIDLSNNAISWVRQAPGKGLEYVGVIGNTGDTYYADSAKGRFTISRDSSKTTLYLQMNSLRAEDTAVYFCVRGPPSYSSSVKNIWGQGTLVTVSSASTKGPSVFPLAPSSKSTSGGTAALGCLVKDYFPEPVTVSWNSGALTSGVHTFPAVLQSSGLYSLSSVVTVPSSSLGTQTYICNVNHKPSNTKVDKKVEPKSCDKTHTCPPCPAPEAAGGPSVFLFPPKPKDTLMISRTPEVTCVVVSVSHEDPEVKFNWYVDGVEVHNAKTKPREEQYNSTYRVVSVLTVLHQDWLNGKEYKCKVSNKALPAPIEKTISKAKGQPREPQVYTLPPSREEMTKNQVSLSCAVKGFYPSDIAVEWESNGQPENNYKTTPPVLDSDGSFFLVSKLTVDKSRWQQGNVFSCSVMHEALHNRFTQKSLSLSPGK
light: B1 light
notes: Chain B heavy: two CALRB421 Fab heavy parts in tandem, Fc
